From US20160039904A1, “STABILIZED SINGLE HUMAN CD4 DOMAINS AND FUSION PROTEINS” (priority 2013, published 2016)
Where two headings read alike, the source gives them in different places.

Assays:
[1] = biological target: HIV-1 Env of isolate GXC (HIV-1); experiment: cell-based or functional assay
[2] = biological target: HIV-1 Env of isolate 89.6 (HIV-1); experiment: cell-based or functional assay
[3] = biological target: HIV-1 Env of isolate JRCSF (HIV-1) (UniProt P20871); experiment: cell-based or functional assay
Sequence of HIV-1 Env of isolate JRCSF (HIV-1) (P20871 32-848 limits assumed): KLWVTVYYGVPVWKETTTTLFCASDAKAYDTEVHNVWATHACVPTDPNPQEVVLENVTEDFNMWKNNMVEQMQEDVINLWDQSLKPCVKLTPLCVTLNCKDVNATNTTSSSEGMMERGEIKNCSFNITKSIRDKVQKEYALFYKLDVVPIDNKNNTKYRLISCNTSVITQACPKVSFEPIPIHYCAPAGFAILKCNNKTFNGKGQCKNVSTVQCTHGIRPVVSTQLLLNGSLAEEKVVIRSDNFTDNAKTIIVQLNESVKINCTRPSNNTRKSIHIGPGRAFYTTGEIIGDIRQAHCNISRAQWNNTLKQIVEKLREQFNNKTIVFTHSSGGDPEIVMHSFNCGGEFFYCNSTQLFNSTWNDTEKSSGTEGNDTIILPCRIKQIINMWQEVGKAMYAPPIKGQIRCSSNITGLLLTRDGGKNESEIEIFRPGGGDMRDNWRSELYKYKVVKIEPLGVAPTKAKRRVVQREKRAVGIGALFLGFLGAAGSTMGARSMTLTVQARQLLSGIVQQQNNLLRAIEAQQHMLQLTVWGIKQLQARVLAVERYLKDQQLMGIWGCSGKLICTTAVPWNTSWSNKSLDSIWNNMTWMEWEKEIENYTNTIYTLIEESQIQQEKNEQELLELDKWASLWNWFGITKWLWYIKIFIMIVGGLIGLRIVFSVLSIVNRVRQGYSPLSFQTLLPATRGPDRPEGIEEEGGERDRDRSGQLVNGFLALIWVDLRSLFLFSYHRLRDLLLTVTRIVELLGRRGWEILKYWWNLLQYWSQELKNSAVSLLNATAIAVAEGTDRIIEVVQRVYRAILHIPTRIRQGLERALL

[4] = biological target: HIV-1 Env of isolate GXE (HIV-1); experiment: cell-based or functional assay
[5] = biological target: HIV-1 Env of isolate JRFL (HIV-1); experiment: cell-based or functional assay
[6] = biological target: HIV-1 Env of isolate 92UG037.8 (HIV-1); experiment: cell-based or functional assay
[7] = biological target: HIV-1 Env of isolate CM243 (HIV-1); experiment: cell-based or functional assay
[8] = biological target: HIV-1 Env of isolate Bal (HIV-1); experiment: cell-based or functional assay
[9] = biological target: HIV-1 Env of isolate NL4-3 (HIV-1); experiment: cell-based or functional assay
[10] = biological target: HIV-1 Env of isolate Z2Z6 (HIV-1); experiment: cell-based or functional assay
[11] = biological target: HIV-1 Env of isolate R2 (HIV-1); experiment: cell-based or functional assay
[12] = biological target: HIV-1 Env of isolate IIIB (HIV-1); experiment: cell-based or functional assay
[13] = biological target: HIV-1 Env of isolate KNH1144.EC1 (HIV-1); experiment: cell-based or functional assay
[14] = biological target: HIV-1 Env of isolate CAM0015BBY.EC3 (HIV-1); experiment: cell-based or functional assay
[15] = biological target: HIV-1 Env of isolate AD8 (HIV-1); experiment: cell-based or functional assay
[16] = biological target: HIV-1 Env of isolate GS-015.EC12 (HIV-1); experiment: cell-based or functional assay
[17] = biological target: HIV-1 Env of isolate N1 1046.e3 PV (HIV-1); experiment: cell-based or functional assay
[18] = biological target: HIV-1 Env of isolate KNH1088.EC5 (HIV-1); experiment: cell-based or functional assay
[19] = biological target: HIV-1 Env of isolate CM240.EC1 (HIV-1); experiment: cell-based or functional assay
[20] = biological target: HIV-1 Env of isolate 57128.VRC18 (HIV-1); experiment: cell-based or functional assay
[21] = biological target: HIV-1 Env of isolate 55815.EC3 (HIV-1); experiment: cell-based or functional assay
[22] = biological target: HIV-1 Env of isolate PBL286.VRC36aPV (HIV-1); experiment: cell-based or functional assay
[23] = biological target: HIV-1 Env of isolate BZ167.ec9 (HIV-1); experiment: cell-based or functional assay
[24] = biological target: HIV-1 Env of isolate Bal.EC1 TC (HIV-1); experiment: cell-based or functional assay
[25] = biological target: HIV-1 Env of isolate A07412VRC12A (HIV-1); experiment: cell-based or functional assay
[26] = biological target: HIV-1 Env of isolate JRFL (HIV-1); experiment: cell-based or functional assay; remark: listed apart in the source
[27] = biological target: HIV-1 Env of isolate Bal (HIV-1); experiment: cell-based or functional assay; remark: listed apart in the source

Substance: D1D2 (receptor)
- EC50 (read off the curve) of the enhancement of m36h1Fc binding (gp140Con-s (HIV-1)): 10 to 100 nM

Substance: 2G12 (antibody)
- IC50, neutralization of pseudotyped HIV-1; '-' = No significant neutralization at the highest antibody concentration (67 nM) tested [1]: > 67 nM
- IC90, neutralization of pseudotyped HIV-1; '-' = No significant neutralization at the highest antibody concentration (67 nM) tested [1]: > 67 nM
- IC50, neutralization of pseudotyped HIV-1 [2]: 1.3 nM
- IC90, neutralization of pseudotyped HIV-1 [2]: 43 nM
- IC50, neutralization of pseudotyped HIV-1 [3]: 0.58 nM
- IC90, neutralization of pseudotyped HIV-1 [3]: 9.3 nM
- IC50, neutralization of pseudotyped HIV-1; '-' = No significant neutralization at the highest antibody concentration (67 nM) tested [4]: > 67 nM
- IC90, neutralization of pseudotyped HIV-1; '-' = No significant neutralization at the highest antibody concentration (67 nM) tested [4]: > 67 nM
- IC50, neutralization of pseudotyped HIV-1 [5]: 3 nM
- IC90, inhibition of Env-mediated cell-cell fusion [5]: 67 nM
- IC50, neutralization of pseudotyped HIV-1 [6]: 0.53 nM
- IC50, neutralization of pseudotyped HIV-1; '-' = No significant neutralization at the highest antibody concentration (67 nM) tested [7]: > 67 nM
- IC90, neutralization of pseudotyped HIV-1; '-' = No significant neutralization at the highest antibody concentration (67 nM) tested [7]: > 67 nM
- IC50, inhibition of Env-mediated cell-cell fusion [8]: 38 nM
- IC90, inhibition of Env-mediated cell-cell fusion [8]: > 67 nM
- IC90, neutralization of pseudotyped HIV-1 [8]: 41 nM
- IC50, neutralization of pseudotyped HIV-1 [9]: 1.3 nM
- IC50, neutralization of pseudotyped HIV-1 [10]: 0.7 nM
- IC50, neutralization of pseudotyped HIV-1 [11]: 0.68 nM
- IC90, neutralization of pseudotyped HIV-1 [11]: 4.6 nM
- IC50, neutralization of pseudotyped HIV-1 [12]: 1.5 nM
- IC90, neutralization of pseudotyped HIV-1 [12]: 9.3 nM

Substance: 4Dm2m (bispecific antibody)
- IC50, neutralization of pseudotyped HIV-1 [1]: 0.61 nM
- IC90, neutralization of pseudotyped HIV-1 [1]: 4 nM
- IC50, neutralization in TZM-bl cell-based assay [13]: 0.081 nM
- IC90, neutralization in TZM-bl cell-based assay [13]: 1 nM
- IC50, neutralization in TZM-bl cell-based assay [14]: 0.72 nM
- IC90, neutralization in TZM-bl cell-based assay [14]: 7.4 nM
- IC50, neutralization of pseudotyped HIV-1 [2]: < 0.021 nM
- IC90, neutralization of pseudotyped HIV-1 [2]: < 0.021 nM
- IC50, neutralization of pseudotyped HIV-1 [3]: 0.29 nM
- IC90, neutralization of pseudotyped HIV-1 [3]: 3 nM
- IC50, neutralization of pseudotyped HIV-1 [4]: 0.83 nM
- IC90, neutralization of pseudotyped HIV-1 [4]: 8.2 nM
- IC50, neutralization of pseudotyped HIV-1 [15]: 0.13 nM
- IC90, neutralization of pseudotyped HIV-1 [15]: 0.74 nM
- IC50, inhibition of Env-mediated cell-cell fusion [5]: 3.6 nM
- IC50, neutralization of pseudotyped HIV-1 [5]: 0.14 nM
- IC90, inhibition of Env-mediated cell-cell fusion [5]: 8.8 nM
- IC90, neutralization of pseudotyped HIV-1 [5]: 0.39 nM
- IC50, neutralization of pseudotyped HIV-1 [6]: 0.051 nM
- IC90, neutralization of pseudotyped HIV-1 [6]: 0.45 nM
- IC50, neutralization of pseudotyped HIV-1 [7]: 0.29 nM
- IC90, neutralization of pseudotyped HIV-1 [7]: 1.2 nM
- IC50, neutralization in TZM-bl cell-based assay [16]: 0.022 nM
- IC90, neutralization in TZM-bl cell-based assay [16]: 0.17 nM
- IC90, neutralization in TZM-bl cell-based assay [17]: 27 nM
- IC50, inhibition of Env-mediated cell-cell fusion [8]: 4.1 nM
- IC50, neutralization of pseudotyped HIV-1 [8]: 0.15 nM
- IC90, neutralization of pseudotyped HIV-1 [8]: 0.5 nM
- IC50, neutralization of pseudotyped HIV-1 [9]: 0.094 nM
- IC90, neutralization of pseudotyped HIV-1 [9]: 0.15 nM
- IC50, neutralization in TZM-bl cell-based assay [18]: 0.48 nM
- IC50, neutralization in TZM-bl cell-based assay [19]: 0.45 nM
- IC90, neutralization in TZM-bl cell-based assay [19]: 3.7 nM
- IC50, neutralization in TZM-bl cell-based assay [20]: 0.4 nM
- IC90, neutralization in TZM-bl cell-based assay [20]: 2.8 nM
- IC50, neutralization of pseudotyped HIV-1 [10]: 0.14 nM
- IC90, neutralization of pseudotyped HIV-1 [10]: 1.1 nM
- IC50, neutralization of pseudotyped HIV-1 [11]: 0.028 nM
- IC90, neutralization of pseudotyped HIV-1 [11]: 0.43 nM
- IC50, neutralization in TZM-bl cell-based assay [21]: 0.084 nM
- IC90, neutralization in TZM-bl cell-based assay [21]: 0.61 nM
- IC50, neutralization in TZM-bl cell-based assay [22]: 2 nM
- IC50, neutralization in TZM-bl cell-based assay [23]: 0.077 nM
- IC90, neutralization in TZM-bl cell-based assay [23]: 0.5 nM
- IC50, neutralization in TZM-bl cell-based assay [24]: 0.057 nM
- IC90, neutralization in TZM-bl cell-based assay [24]: 0.22 nM
- IC50, neutralization in TZM-bl cell-based assay [25]: 0.75 nM
- IC90, neutralization in TZM-bl cell-based assay [25]: 5.7 nM
- IC50, neutralization of pseudotyped HIV-1 [12]: 0.037 nM
- IC90, neutralization of pseudotyped HIV-1 [12]: 0.1 nM
- IC50, neutralization of pseudotyped HIV-1 [26]: 0.06 nM
- IC90, neutralization of pseudotyped HIV-1 [26]: 0.29 nM
- IC50, neutralization of pseudotyped HIV-1 [27]: 0.12 nM
- IC90, neutralization of pseudotyped HIV-1 [27]: 0.36 nM
